Data published in paper PMC11480844 (2024).

B1: H2-Kb / Ed5 (parent complex)
chain 1: GDSVTQTEGPVTVSESESLIINCTYSATSIAYPNLFWYVRYPGEGLQLLLKVITAGQKGSSRGFEATYNKETTSFHLQKASVQESDSAVYYCALGSYNQGKLIFGQGTKLSIKP
chain 2: DTTVKQNPRYKLARVGKPVNLICSQTMNHDTMYWYQKKPNQAPKLLLFYYDKILNREADTFEKFQSSRPNNSFCSLYIGSAGLEYSAMYLCASSRRLGASQNTLYFGAGTRLSVL
chain 3: not shown
chain 4: IQKTPQIQVYSRHPPENGKPNILNCYVTQFHPPHIEIQMLKNGKKIPKVEMSDMSFSKDWSFYILAHTEFTPTETDTYACRVKHDSMAEPKTVYWDRDM
chain 5: SIINFEKL
B2: H2-Kb / Ed45 (parent complex)
chain 1: GEQVEQRPPHLSVREGDSAVIICTYTDPNSYYFFWYKQEPGAGLQLLMKVFSSTEINEGQGFTVLLNKKDKQLSLNLTAAHPGDSAVYFCAVSGTNAYKVIFGKGTHLHVLP
chain 2: EAAVTQSPRSKVAVTGGKVTLSCHQTNNHDYMYWYRQDTGHGLRLIHYSYVADSTEKGDIPDGYKASRPSQENFSLILELASLSQTAVYFCASARGFQDTQYFGPGTRLLVL
chain 3: not shown
chain 4: B1 chain 4
chain 5: SIINFEKL

Variants of: B1
Assay: % of reporter cells activated (NFAT-GFP), raw
Further: test concentration or dose not given here.

Row | Variant | ratio to parent
1 | chain 5 I3L | 0.897
2 | chain 5 I3R | 0.064
3 | chain 5 I3V | 0.661
4 | chain 5 I3A | 0.32
5 | chain 5 I3N | 0.164
6 | chain 5 I3M | 0.723
7 | chain 5 I3T | 0.512
8 | chain 5 I3P | 0.36
9 | chain 5 I3K | 0.682
10 | chain 5 I3S | 0.329
11 | chain 5 I3E | 0.287
12 | chain 5 I3F | 0.0887
13 | chain 5 I3Y | 0.0245
14 | chain 5 I3D | 0.436
15 | chain 5 I3W | 0.372
16 | chain 5 L8V | 0.546
17 | chain 5 L8M | 0.752
18 | chain 5 L8K | 0.793
19 | chain 5 L8N | 0.753
20 | chain 5 L8A | 0.711
21 | chain 5 L8E | 0.629
22 | chain 5 L8Q | 0.783
23 | chain 5 L8T | 0.671

Row | Variant | ratio to parent
24 | chain 5 L8H | 0.958
25 | chain 5 L8S | 0.641
26 | chain 5 L8Y | 0.848
27 | chain 5 L8R | 0.904
28 | chain 5 L8I | 0.758
29 | chain 5 L8W | 0.585
30 | chain 5 L8P | 0.826
31 | chain 5 L8G | 0.901
32 | chain 5 L8D | 0.747
33 | chain 5 L8C | 0.929
34 | chain 5 E6Y | 0.633
35 | chain 5 E6R | 0.0689
36 | chain 5 E6G | 0.939
37 | chain 5 E6S | 0.585
38 | chain 5 E6M | 0.443
39 | chain 5 E6A | 0.606
40 | chain 5 E6I | 0.533
41 | chain 5 E6T | 0.622
42 | chain 5 E6D | 0.941
43 | chain 5 E6Q | 0.619
44 | chain 5 E6F | 0.506
45 | chain 5 E6W | 0.54
46 | chain 5 E6H | 0.554

Row | Variant | ratio to parent
47 | chain 5 E6V | 0.618
48 | chain 5 E6P | 0.186
49 | chain 5 E6C | 0.491
50 | chain 5 E6N | 0.498
51 | chain 5 E6K | 0.901
52 | chain 5 E6L | 0.165
53 | chain 5 K7S | 0.605
54 | chain 5 K7E | 0.632
55 | chain 5 K7F | 0.657
56 | chain 5 K7D | 0.593
57 | chain 5 K7T | 0.602
58 | chain 5 K7M | 0.725
59 | chain 5 K7Y | 0.717
60 | chain 5 K7I | 0.65
61 | chain 5 K7P | 0.728
62 | chain 5 K7G | 0.658
63 | chain 5 K7V | 0.62
64 | chain 5 K7C | 0.686
65 | chain 5 K7R | 0.853
66 | chain 5 K7A | 0.645
67 | chain 5 K7L | 0.728
68 | chain 5 K7H | 0.798
69 | chain 5 K7N | 0.714

Variants of: B2
Assay: % of reporter cells activated (NFAT-GFP), raw

Row | Variant | ratio to parent
70 | chain 5 E6T | 0.91
71 | chain 5 N4I | 1.11
72 | chain 5 F5L | 0.719
73 | chain 5 S1L | 0.0583
74 | chain 5 L8Q | 1.79
75 | chain 5 K7S | 1.34
